Changes are numbered by the printed parent chain.
T1: Full length mouse CD98hc on CHO cells (mouse, UniProt P10852 1-526)
T1 construct: CHO cells stably overexpressing it; also called CHO-mouse CD98hc; CHO-mCD98hc
T1 sequence: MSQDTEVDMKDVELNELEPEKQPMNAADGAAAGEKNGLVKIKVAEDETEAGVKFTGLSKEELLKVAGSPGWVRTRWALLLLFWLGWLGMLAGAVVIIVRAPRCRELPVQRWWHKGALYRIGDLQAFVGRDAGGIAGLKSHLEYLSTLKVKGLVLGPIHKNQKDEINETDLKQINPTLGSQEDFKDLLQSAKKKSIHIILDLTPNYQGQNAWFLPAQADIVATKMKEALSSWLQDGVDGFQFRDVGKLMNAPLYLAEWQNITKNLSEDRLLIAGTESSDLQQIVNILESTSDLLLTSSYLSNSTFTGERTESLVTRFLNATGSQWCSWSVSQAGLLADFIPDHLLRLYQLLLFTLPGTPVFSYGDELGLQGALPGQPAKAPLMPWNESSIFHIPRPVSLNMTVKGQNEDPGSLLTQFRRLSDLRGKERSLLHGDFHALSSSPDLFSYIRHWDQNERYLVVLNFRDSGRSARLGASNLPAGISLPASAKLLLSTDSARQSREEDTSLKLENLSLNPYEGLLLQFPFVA

T2: muCD98hc ECD Avi-His (mouse, UniProt P10852 100-526)
T2 construct: biotinylated on the Avi tag where captured on streptavidin; also called Mouse CD98-AVI-His; Mouse CD98hc-AVI-His
T2 sequence: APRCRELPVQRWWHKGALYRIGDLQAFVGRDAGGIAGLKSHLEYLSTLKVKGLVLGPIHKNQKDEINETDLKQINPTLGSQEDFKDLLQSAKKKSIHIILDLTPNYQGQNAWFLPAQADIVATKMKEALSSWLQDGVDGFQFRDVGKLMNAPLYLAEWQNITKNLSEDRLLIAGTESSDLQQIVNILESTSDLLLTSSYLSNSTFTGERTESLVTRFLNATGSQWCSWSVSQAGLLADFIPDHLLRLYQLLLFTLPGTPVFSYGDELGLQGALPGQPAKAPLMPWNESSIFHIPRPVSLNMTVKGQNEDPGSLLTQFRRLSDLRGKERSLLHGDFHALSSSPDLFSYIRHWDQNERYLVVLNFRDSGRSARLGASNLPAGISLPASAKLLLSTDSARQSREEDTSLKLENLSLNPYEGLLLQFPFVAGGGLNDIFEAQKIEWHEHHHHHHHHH

T3: huCD98hc ECD Avi-His (human, UniProt P08195 105-529)
T3 construct: biotinylated on the Avi tag where captured on streptavidin; also called Human CD98-AVI-His; Human CD98hc-AVI-His
T3 sequence: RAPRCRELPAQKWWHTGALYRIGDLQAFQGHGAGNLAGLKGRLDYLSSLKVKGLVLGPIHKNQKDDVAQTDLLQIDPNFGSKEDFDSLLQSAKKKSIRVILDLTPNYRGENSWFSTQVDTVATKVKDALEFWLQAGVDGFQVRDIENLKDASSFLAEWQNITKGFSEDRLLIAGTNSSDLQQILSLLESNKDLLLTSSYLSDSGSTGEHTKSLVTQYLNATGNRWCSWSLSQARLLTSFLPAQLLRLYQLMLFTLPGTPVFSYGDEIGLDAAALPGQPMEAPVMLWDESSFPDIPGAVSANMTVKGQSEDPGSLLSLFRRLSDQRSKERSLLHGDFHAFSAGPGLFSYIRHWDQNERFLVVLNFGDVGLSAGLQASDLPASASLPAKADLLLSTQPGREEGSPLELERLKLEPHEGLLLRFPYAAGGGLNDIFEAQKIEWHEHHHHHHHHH

T4: Cyno CD98hc ECD Avi-His (cynomolgus macaque, UniProt P08195 105-529 (human entry))
T4 construct: biotinylated on the Avi tag where captured on streptavidin; also called Cyno CD98-AVI-His; Cyno CD98hc-AVI-His
T4 chain: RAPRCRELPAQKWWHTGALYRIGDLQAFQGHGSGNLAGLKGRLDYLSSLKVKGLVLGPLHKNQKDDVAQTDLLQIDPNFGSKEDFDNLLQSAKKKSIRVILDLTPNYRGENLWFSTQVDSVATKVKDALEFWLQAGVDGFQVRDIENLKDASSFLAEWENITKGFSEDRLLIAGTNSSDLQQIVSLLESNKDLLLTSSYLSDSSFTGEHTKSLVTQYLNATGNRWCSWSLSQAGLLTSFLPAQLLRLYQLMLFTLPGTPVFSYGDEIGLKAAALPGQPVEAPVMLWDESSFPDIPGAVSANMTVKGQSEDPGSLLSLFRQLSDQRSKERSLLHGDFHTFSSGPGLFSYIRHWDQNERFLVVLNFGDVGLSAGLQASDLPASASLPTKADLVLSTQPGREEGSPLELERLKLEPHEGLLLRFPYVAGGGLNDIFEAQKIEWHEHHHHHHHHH

T5: human CD98hc endogenously expressed on HCMEC/D3 cells (human)
T5 construct: human brain endothelial cell line
T5 chain: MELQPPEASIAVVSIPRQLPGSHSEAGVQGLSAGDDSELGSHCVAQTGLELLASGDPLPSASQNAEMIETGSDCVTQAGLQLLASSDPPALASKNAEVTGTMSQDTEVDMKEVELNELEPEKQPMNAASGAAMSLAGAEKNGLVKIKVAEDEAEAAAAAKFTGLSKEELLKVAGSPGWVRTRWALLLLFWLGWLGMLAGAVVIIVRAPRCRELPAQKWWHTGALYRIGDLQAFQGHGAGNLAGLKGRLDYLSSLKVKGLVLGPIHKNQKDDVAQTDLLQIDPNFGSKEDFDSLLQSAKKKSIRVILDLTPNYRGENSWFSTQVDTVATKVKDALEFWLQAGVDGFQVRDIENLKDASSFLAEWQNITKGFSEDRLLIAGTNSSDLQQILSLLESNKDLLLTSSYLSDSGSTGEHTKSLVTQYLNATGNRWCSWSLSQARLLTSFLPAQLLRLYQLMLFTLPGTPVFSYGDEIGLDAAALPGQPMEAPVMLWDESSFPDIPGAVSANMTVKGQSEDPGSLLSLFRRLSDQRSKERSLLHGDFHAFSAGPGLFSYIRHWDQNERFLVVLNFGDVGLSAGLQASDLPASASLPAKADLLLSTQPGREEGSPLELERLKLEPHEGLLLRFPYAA

T6: Full length human CD98hc on CHO cells (human)
T6 construct: CHO cells stably overexpressing it; also called CHO-human CD98hc; CHO-huCD98hc
T6 chain: T5 chain

B1: CD98HC.04.047 (antibody, V domains shown)
VH: EVQLQESGPSLVKPSQTLSLTCSVTGDSITSGYWNWIRKFPGNKLEYMGYISYSGSTYYNPSLKGRVSITRDTSKNQYYLQLNSVTTEDTATYYCQRHVIYDYTWFAYWGQGTLVTVSA
VL: QIVLTQSPAIMSASPGEKVTISCSASSSVGYMYWLQQKPGSSPKPWIYRTSILASGVPARFSGSGSGTSYSLTISSMEAEDAATYYCQQYQSYPLTFGAGTKLELK
notes: hybridoma IgG
B2: CD98HC.04.065 (antibody, V domains shown)
VH: B1 VH with S56R, G65S
VL: B1 VL with G30H, L35F, A59D
notes: hybridoma IgG
B3: CD98hc.04.064.1a (humanized, 2+1 format) (bispecific antibody)
scFv: QVQLVQSGAEVKKPGASVKVSCKASGYTFTSYWMNWVRQAPGQGLEWMGIIDPSDSETHYAQKFQGRVTMTVDKSTSTVYMELSSLRSEDTAVYYCARASYGKGYFDYWGQGTLVTVSSGGSEGKSSGSGSESKSTGGSDIVMTQSPDSLAVSLGERATINCKSSQSLLNNINQKNYLAWYQQKPGQPPKLLIYFASTRESGVPDRFSGSGSGTDFTLTISSLQAEDVAVYYCQQHYSSPFTFGGGTKVEIK
notes: tested as 2+1 bispecific (scFv on an IgG)
B4: CD98hc.04.064.4a (humanized, 2+1 format) (bispecific antibody)
scFv: B3 scFv with H59N, M70S, T76I, V79A, S85R, E89D, A92V
notes: as for B3
B5: CD98HC.04.054 (antibody, V domains shown)
VH: QVQLQQSAAELARPGASVKMSCETSGYTFTRYTMNWVKQRPGQGLDWIGYINPSSGYAEYNQKFRGKTTLTADKSSSTAYIQLNSLTSEDSAVYYCVRYDGNYVYWGQGTTLTVSS
VL: DIVMTQSQKFMSTSFGDRVDITCKASQNVGSAVAWYQQKPGQSPKLLIYSASNRYTGVPDRFTGSGSGTDFTLTINNMQSADLADYFCQQYNFYPLTFGAGTKLDLK
notes: hybridoma IgG

Key:
[1] = target: T1, Full length mouse CD98hc on CHO cells; test: FACS, hybridoma supernatant
[2] = target: T1, Full length mouse CD98hc on CHO cells; test: FACS, hybridoma supernatant; remark: listed apart in the source
From the text: The IgG positive hybridoma supernatants (898 in total) were initially screened for their ability to differentially bind CHO cells overexpressing human or mouse CD98hc cells compared to CHO parental cells by FACS. Overexpressing cells were harvested, washed, and labeled with various concentrations and combinations of CellTrace cell proliferation dyes CFSE and Violet (ThermoFisher, Cat #C34554 and Cat #34557, respectively) to create uniquely barcoded cell populations. Barcoded cells (5×10⁴ of each cell population) were aliquoted into 96-well U-bottom plates and incubated with 50 μl of hybridoma cell culture supernatant or 1 μg/ml of commercially available purified mouse anti-human CD98hc monoclonal antibody (Sigma Aldrich, Cat #SAB 4700503) and rat anti-mouse CD98hc antibody (Bio-Rad Laboratories, Hercules, CA, Cat #MCA2684) on ice for 30 minutes. […] Following this secondary antibody incubation, the cells were again washed twice with ice-cold FACS buffer and resuspended in a final volume of 50 μl of FACS buffer containing 0.25 μl/well propidium iodide (BD Biosciences, Cat #556463). Binding intensity on cells was analyzed using the FACS Canto system (BD Biosciences), with sorting gates drawn to exclude dead (i.e., propidium iodide-positive) cells. For each barcoded cell population, the ratio of APC Mean Fluorescence Intensity (MFI) divided by secondary antibody MFI was calculated for each anti-CD98hc hybridoma supernatant tested and reported in Table 5.

muCD98hc ECD Avi-His = target: T2, muCD98hc ECD Avi-His; test: ELISA, hybridoma supernatant
Experimental: (§1) Briefly, 96-well polystyrene plates were coated with 5 μg/ml of streptavidin (Thermo Fisher, Cat #PI21125) in coating buffer (0.05M carbonate buffer, pH 9.6, Sigma, Cat #C3041) overnight at 4° C. Coated plates were then blocked with ELISA diluent (PBS+0.5% BSA+0.05% Tween20) for one hour. Blocking buffer was removed and human, cyno, or mouse Avi-His-tagged CD98hc and Avi-His-tagged human TfR polypeptides were added at 1 μg/ml in ELISA diluent and captured for 1 hour at room temperature. After washing three times with 300 μl of PBST (PBS+0.05% Tween20, Thermo 28352), the hybridoma cell culture supernatants or 1 μg/ml of commercially available purified mouse anti-human CD98hc monoclonal antibody (Sigma Aldrich, Cat #SAB 4700503) and rat anti-mouse CD98hc antibody (Bio-Rad Laboratories, Hercules, CA, Cat #MCA2684) were added (50 μl/well) to each well. After 30 minutes of incubation at room temperature, the plates were washed three times with 300 μl of PBST. […] After a final set of washes (3×300 μl in PBST), 50 μl/well of BioFx TMB substrate (Surmodics, Eden Praire, MN, Cat #TMBW-1000-01) was added to the wells. The reaction was then quenched after 5-10 mins with 50 μl/well of 2N sulfuric acid. The plates were read for absorbance at 450 nm on a SpectraMax M5 (Molecular Devices, Sunnyvale, CA) using SoftMax Pro software.

[3] = target: T7, Human TfR-AVI-His (control) (human, UniProt P02786 89-760); test: ELISA, hybridoma supernatant
T7 construct: control protein; also called Avi-His-tagged human TfR; human transferrin receptor
T7 sequence (P02786 89-760 limits assumed): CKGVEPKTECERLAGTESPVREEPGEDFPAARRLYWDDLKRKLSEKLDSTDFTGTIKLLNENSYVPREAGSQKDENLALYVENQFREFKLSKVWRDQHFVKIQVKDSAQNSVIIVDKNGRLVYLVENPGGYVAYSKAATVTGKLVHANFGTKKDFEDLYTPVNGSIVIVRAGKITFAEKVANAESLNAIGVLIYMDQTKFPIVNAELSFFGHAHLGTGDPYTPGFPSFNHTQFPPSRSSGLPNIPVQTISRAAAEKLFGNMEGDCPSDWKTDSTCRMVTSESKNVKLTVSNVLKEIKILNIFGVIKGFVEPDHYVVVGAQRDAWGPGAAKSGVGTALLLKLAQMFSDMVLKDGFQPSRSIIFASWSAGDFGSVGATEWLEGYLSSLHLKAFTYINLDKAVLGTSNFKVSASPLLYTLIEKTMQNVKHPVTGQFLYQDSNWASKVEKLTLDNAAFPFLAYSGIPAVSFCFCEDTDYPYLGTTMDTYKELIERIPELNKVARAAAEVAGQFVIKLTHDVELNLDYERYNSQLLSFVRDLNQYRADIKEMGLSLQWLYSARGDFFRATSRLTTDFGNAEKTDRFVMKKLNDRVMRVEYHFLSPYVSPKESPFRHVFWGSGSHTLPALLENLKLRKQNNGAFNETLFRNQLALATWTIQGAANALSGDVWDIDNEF
Experimental: as §1

huCD98hc ECD Avi-His = target: T3, huCD98hc ECD Avi-His; test: SPR, Biacore T200, anti-kappa capture
Experimental: (§2) Binding kinetics of 2+1 anti-CD98hc bispecific antibodies to recombinant human and cynomolgus CD98hc ECD Avi-His were evaluated using a Biacore T200 instrument (Global Life Sciences Solutions USA LLC, Marlborough, MA). The 2+1 anti-CD98hc bispecific antibodies were prepared by diluting to 50 μg/mL in running buffer HBS-EP+ (Teknova) with 0.5 mg/mL BSA (MP Biomedicals) and captured by a goat anti-human kappa polyclonal antibody (Southern Biotech) surface that was prepared according to the instrument manufacturer's recommendations. Two independent experiments were performed as follows, resulting in an N of between one and […] determinations for each antibody. Estimates of affinity were generated by injecting each analyte over captured antibody on Flowcell 2, 3, or 4. CD98hc ECD Avi-His analytes were diluted with running buffer, in a series of five, three-fold serial dilutions starting from 600 nM. Analytes were injected without regeneration, from lowest to highest concentration, for 5 minutes each, and dissociation was followed for 15 minutes. After each analyte injection series, antibodies were regenerated with 10 mM glycine pH 2.0 buffer (Cytiva). Data were processed and analyzed using Biacore T200 BiaEvaluation software (Cytiva).
(§3) The equilibrium dissociation constants (KD) were calculated from the fitted association and dissociation rate constants (k-on and k-off) for 2+1 anti-CD98hc bispecific antibodies of the present disclosure binding to human and cynomolgus CD98hc ECD Avi-His. For measurements with N>1, means and standard deviation were calculated and measurements for all samples were combined and graphed using GraphPad Prism.

Cyno CD98hc ECD Avi-His = target: T4, Cyno CD98hc ECD Avi-His; test: SPR, Biacore T200, anti-kappa capture
Experimental: as §2, §3

[4] = target: T5, human CD98hc endogenously expressed on …; test: FACS, hybridoma supernatant
[5] = target: T6, Full length human CD98hc on CHO cells; test: FACS, hybridoma supernatant

MFI ratio over secondary antibody [1]	binding result [2]	OD450 (muCD98hc ECD Avi-His)	OD450 [3]	Kd (huCD98hc ECD Avi-His)	Kd (Cyno CD98hc ECD Avi-His)	MFI ratio over secondary antibody [4]	MFI ratio over secondary antibody [5]	Binder
1.2	no binding	0.103	0.0949					B1
1.2	no binding	0.0984	0.1					B2
				31 nM	880 nM			B3
				34 nM	430 nM			B4
1.2	no binding					218	52	B5

From patent US20250270341A1 (Alector, published 2025)
